# From patent US20220281982A1
# Target: NKG2D (human) (UniProt P26718)
# Assay: cell-based or functional assay
# Chain of UniProt P26718 (P26718 whole entry): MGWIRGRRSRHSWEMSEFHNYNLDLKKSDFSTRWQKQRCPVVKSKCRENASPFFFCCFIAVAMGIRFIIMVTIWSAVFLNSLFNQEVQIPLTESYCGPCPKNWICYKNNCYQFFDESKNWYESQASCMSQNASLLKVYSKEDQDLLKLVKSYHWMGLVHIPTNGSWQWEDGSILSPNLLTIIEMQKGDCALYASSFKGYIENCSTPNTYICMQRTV
binder,measurement,value
"anti-NKG2D-anti-CS1 bispecific antibody (bispecific antibody, part only; not given: anti-CS1 scFv and linkers, part only) chain, part: QVQLVESGGGLVKPGGSLRLSCAASGFTFSSYGMHWVRQAPGKGLEWVAFIRYDGSNKYYADSVKGRFTISRDNSKNTLYLQMNSLRAEDTAVYYCAKDRGLGDGTYFDYWGQGTTVTVSSQSALTQPASVSGSPGQSITISCSGSSSNIGNNAVNWYQQLPGKAPKLLIYYDDLLPSGVSDRFSGSKSGTSAFLAISGLQSEDEADYYCAAWDDSLNGPVFGGGTKLTVLPSGQAGAAASESLFVSNHAYHHHHHH",Ki67 expression of T cells cultured without IL-2,80%
